According to the supplement of paper PMC9170038:

Test system: MS2 coat protein
Experiment: apparent KD of MS2 coat protein; higher = weaker reporter binding
Settings: Eterna round: R107
Protocol: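 RNA-MaP round R107: designed RNA switches with theophylline, tryptophan, arginine or FMN aptamers are transcribed on-chip within common flanks. They are titrated with SNAP-549-labelled MS2 coat protein in RNA-MaP buffer (100 mM Tris pH 7.5, 80 mM KCl, 4 mM MgCl2), without ligand or with the indicated ligand. Median apparent KD per design.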

[1] = input ligand: theophylline 20 uM
[2] = input ligand: theophylline 2 mM
[3] = input ligand: tryptophan 2.4 mM

Row | Sequence | apparent KD of MS2 coat protein (input ligand: arginine 13.2 mM) [nM] | apparent KD of MS2 coat protein [1] [nM] | apparent KD of MS2 coat protein [2] [nM] | apparent KD of MS2 coat protein [3] [nM] | apparent KD of MS2 coat protein (input ligand: none) [nM]
1 | AUCUUUGGCGAUCUGGGAAAACCAGAUCGACGAGGACCGGUACGGCCGCCACUCGUGUAUAAUAUACAUGAGGAUCACCCAUGUA [#18 Tryptophan A Same State] | 27.8 | 61.1 | 64.7 | – | –
2 | AUGACUCACAAAGAAGAUAAAAUGGGUGAACGAGGACCGGUACGGCCGCCACUCGGACAUGAGGAUCACCCAUGUCCAUGUGCAA [#24 Exclusion Tryptophan A] | 16 | 24.3 | 21 | – | –
3 | AUGCAGGGCAACAGCCACUGUCACGGUGAUACCAGUACCCGUGCGUACCCUUGGCAGCAUCGUGGUACAUGAGGAUCACCCAUGU [Enatleceed] | 36.8 | 503 | – | 546 | –
4 | AUGUAGAACCGAAGGAGCGCGAUAACAUGAGGAUCACCCAUGUAGUUUUGGUGGCUUCGAUCGCAGGUAGGUCGCGGAAGUAGUA [#03 Exclusion - Arginine B] | 37.9 | 97.6 | 77 | 55.4 | 35.9
5 | AUGUCGUUGAAUAUAGCGGCUUGGUGUGAUACCAGAAUGAUCUAAUUCCCUUGGCAGCAUUACAUGAGGAUCACCCAUGUUCCAG [SSTheo A #21] | 23.6 | 47.4 | 57.3 | 48.7 | 39.1
6 | AUUAAGGAUAUGUAGAAGGCGGAGAAGAGACGAGGACCGGUACGGCCGCCACUCGUGUUAGUUAACAUGAGGAUCACCCAUGUAA [#06 Tryptophan A Same State] | 14.3 | 72.3 | 112 | 17.1 | 60.7
7 | AUUAAUUGUCGUGAUACCAGACAUACAUGAGGAUCACCCAUGUUAAGUAACAUUUUUUAUGUCCCUUGGCAGCACUUUUUAAUUA [JR_Nu_SSTheophyB_Sub017] | 22 | 24.8 | – | 19.7 | –
8 | AUUAUCAUGGUCAUUUAUAUUUCGUCAGAUACCAGACUAGAUAUAGUCCCUUGGCAGCUGUUACAUGAGGAUCACCCAUGUUAUU [JR_ExcTheophyA_Sub018] | 44.7 | 70.6 | – | 103 | –
9 | AUUCAUGAAAACAUGACAUGAGGAUCACUCCGAGGACCGGUACGGCCGCCACUCGCGAGGAGGCACAUGAGGAUCACCCAUGUUA [SS Tryp A #2] | 36 | 119 | 143 | – | –
10 | AUUUAUAGUUGUGAUACCAGACUUACAUGAGGAUCACCCAUGUUACUUAAAUGUUUUGAUGUCCCUUGGCAGCACUGUUUUUUUA [JR_Nu_ExcTheophyB_Sub029] | 16.1 | 22.6 | – | 16.4 | –
11 | CAAAUAAGAACAAACAAAUAACGGUUUUCGCGAGGACCGGUACGGCCGCCACUCGUGUGAAAUAACACAUGAGGAUCACCCAUGU [3'end-1] | 31.8 | 44.6 | 47.9 | – | –
12 | CAACUGGCAGAGGAUACCAGAUCAUUUAGAAACAUGAGGAUCACCCAUGUCGUAAGGAUAAUCCCUUGGCAGCCUAUCCGCCUCG [theeternabot_sameState_MS2_Theo_B_48] | 14.2 | 16.6 | – | 14.5 | –
13 | CACAUGAGGAUCACCCAUGUGUAAUAUGAAGGAGCGUCGGAAAUGACAGGUAGGUCGCAUGAAAUGCAAGUGUGUGAGGUUGUGA [EAA NP+V+V2 #12] | 9.17 | 17.7 | 10.5 | 10.9 | 10
14 | CACGCACGAUCGGCCGCCACUCAUGUAGCUUACAUGAGGAUCACCCAUGUAUUUUCUUUCUUUUAGAGGACCGGGAUCGUGCGUG [#03 Same State - Tryptophan B] | 25 | 48.5 | 35 | – | –
15 | CACGGAUGAGUGGAUCACCCUCAUAAUAACCGAGGACCGGUACGGCCGCCACUCGAAAACCGUGACCUGUACGAAAAGUGCAGGA | 28 | 486 | 782 | 708 | 33.5
16 | CCAUAAGUACCGGUCCUCAGAUCCUCAUGACGAGGACCGGUACGGCCGCCACUCGAAACAUGAGGAUCACCCAUGUAAUAAUAUU [Brourdmod14] | 19.3 | 45.4 | 31.1 | – | –
17 | CCCAUACAUGAGGAUCACCCAUGUGUUGAUACCAGCAUAUGUAGAUGCCCUUGGCAGCAAGCUUGGGUCACUGGAAAACAUCUAA [theeternabot_sameState_MS2_Theo_A_38] | 23.8 | 27.4 | – | 22.6 | –
18 | CCGUUUUAUGGCGACAUAGGGCGGACUGAAGGAGCGGUAUAAAAGCCAGGUAGGUCGCAGAGAUCCACAUGAGGAUCACCCAUGU [!0.aA] | 29.4 | 45.8 | 41 | 51 | 39.7
19 | CCUCAAUAGACGGCCGCCACUGAAACAUGCGGAUACAUGAGGAUCACCCAUGUGGGUGUGUUACGCAGGACCGGGUCAAGACCCG [#12 Same State - Tryptophan B] | 115 | 316 | 583 | – | –
